In FireProtDB (doi:10.1074/jbc.m705677200):

Conditions: Helicobacter pylori (strain ATCC 700392 / 26695), 25.2 °C, Urea, whole UniProt chain shown
[1] = pH 2, CD, Sodium phosphate 23 mM
[2] = pH 2, Fluorescence, Sodium phosphate 23 mM
[3] = pH 5, Fluorescence, Sodium acetate 16 mM

B1: Flavodoxin wild type, O25776 (protein)
chain: MGKIGIFFGTDSGNAEAIAEKISKAIGNAEVVDVAKASKEQFNSFTKVILVAPTAGAGDLQTDWEDFLGTLEASDFATKTIGLVGLGDQDTYSETFAEGIFHIYEKAKAGKVVGQTPTDGYHFEASKAVEGGKFVGLVIDEDNQDDLTDERISKWVEQVKGSFA
[1]
  denaturant m value: 1.28 kcal/mol/M
  denaturant midpoint (higher = more stable): 0.89 M
  unfolding free energy: 1.14 kcal/mol
[2]
  denaturant m value: 1.35 kcal/mol/M
  denaturant midpoint (higher = more stable): 0.84 M
  unfolding free energy: 1.13 kcal/mol
pH 5, CD, Sodium acetate 16 mM
  denaturant m value: 2.24 kcal/mol/M
  denaturant midpoint (higher = more stable): 4.1 M
  unfolding free energy: 9.2 kcal/mol
[3]
  denaturant m value: 2.32 kcal/mol/M
  denaturant midpoint (higher = more stable): 4.04 M
  unfolding free energy: 9.37 kcal/mol
pH 7, CD, MOPS 30 mM
  denaturant m value: 2.11 kcal/mol/M
  denaturant midpoint (higher = more stable): 2.94 M
  unfolding free energy: 6.2 kcal/mol
pH 7, Fluorescence, MOPS 30 mM
  denaturant m value: 2.18 kcal/mol/M
  denaturant midpoint (higher = more stable): 3.01 M
  unfolding free energy: 6.56 kcal/mol
pH 9, CD, CHES 35 mM
  denaturant m value: 2.19 kcal/mol/M
  denaturant midpoint (higher = more stable): 2.16 M
  unfolding free energy: 4.73 kcal/mol
pH 9, Fluorescence, CHES 35 mM
  denaturant m value: 2.03 kcal/mol/M
  denaturant midpoint (higher = more stable): 2.21 M
  unfolding free energy: 4.5 kcal/mol
